The text below walks through data of article PMC10179125, “Populus euphratica GLABRA3 Binds PLDδ Promoters to Enhance Salt Tolerance”.

Data set [1] has as its target T1, PeGLABRA3 (Populus euphratica, UniProt A0AAJ6UG00 1-628).
T1 sequence: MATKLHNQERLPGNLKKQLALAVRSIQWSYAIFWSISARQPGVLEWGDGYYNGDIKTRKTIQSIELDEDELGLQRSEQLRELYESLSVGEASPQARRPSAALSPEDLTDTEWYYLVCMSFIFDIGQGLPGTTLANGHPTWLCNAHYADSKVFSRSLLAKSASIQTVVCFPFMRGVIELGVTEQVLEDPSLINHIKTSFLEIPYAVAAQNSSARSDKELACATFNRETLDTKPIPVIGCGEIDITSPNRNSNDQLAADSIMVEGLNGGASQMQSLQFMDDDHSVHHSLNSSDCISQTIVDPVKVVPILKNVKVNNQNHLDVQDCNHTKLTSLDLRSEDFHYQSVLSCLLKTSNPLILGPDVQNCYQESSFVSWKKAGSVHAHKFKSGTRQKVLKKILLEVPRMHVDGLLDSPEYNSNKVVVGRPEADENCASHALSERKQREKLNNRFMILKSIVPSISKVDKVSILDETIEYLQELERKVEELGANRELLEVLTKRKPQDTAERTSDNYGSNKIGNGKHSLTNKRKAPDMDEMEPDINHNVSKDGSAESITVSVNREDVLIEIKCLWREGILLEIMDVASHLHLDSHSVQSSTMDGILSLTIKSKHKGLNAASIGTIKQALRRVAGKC
Nature of the data set: EMSA; EMSA on 6% polyacrylamide gel, biotin probes, cold probe 10x; binding buffer, pH, salt and temperature not stated. To be noted: protein: recombinant; tags: C-terminal His (pET28a); chain copies: 2; label: 3' biotin; blunt. On the technique in general: A gel shift assay detects complexes by their altered migration in electrophoresis.

Data set [2] deals with T1, PeGLABRA3. Description: competition; 10x unlabeled probe vs biotin N1; EMSA on 6% polyacrylamide gel, biotin probes, cold probe 10x; binding buffer, pH, salt and temperature not stated. As to conditions: protein: recombinant; tags: C-terminal His (pET28a); chain copies: 2; blunt.

B1: AtPLDδ promoter G-box probe (dsDNA)
DNA 1: AACTCCCATCACGTCGTCCCTCCACCTGTCCTCTCTTCTCCTTCCTTGCT
DNA 2: AGCAAGGAAGGAGAAGAGAGGACAGGTGGAGGGACGACGTGATGGGAGTT
For the molecule B1, the binding result with PeGLABRA3 [1] is given as “binds”.

B2: PePLDδ promoter G-box probe (dsDNA)
DNA 1: CGCTGATCCGGGTAACTGAAATCAGCTGCTGAGAGATGGAAGAGGAGAAT
DNA 2: ATTCTCCTCTTCCATCTCTCAGCAGCTGATTTCAGTTACCCGGATCAGCG
Regarding B2, in the data set with PeGLABRA3 [1], the binding result was “binds”.

B3: PePLDδ promoter G-box cold probe (dsDNA)
DNA 1: B2 DNA 1
DNA 2: B2 DNA 2
B3: the binding result in the data set with PeGLABRA3 [2] is reported as “binds”.
